Assay results: publication PMC9230926

Substrate: O=P(O)(O)OP(=O)(O)O
Experiment: purified protein
Details: Mg2+ (MgPPi complex is the true substrate; free PPi inhibits)

B1: UDP-glucose pyrophosphorylase (UGPase) (Hordeum vulgare) (protein)
chain: MAAAAVAADSKIDGLRDAVAKLGEISENEKAGFISLVSRYLSGEAEQIEWSKIQTPTDEVVVPYDTLAPPPEDLDAMKALLDKLVVLKLNGGLGTTMGCTGPKSVIEVRNGFTFLDLIVIQIESLNKKYGCSVPLLLMNSFNTHDDTQKIVEKYSNSNIEIHTFNQSQYPRIVTEDFLPLPSKGQTGKDGWYPPGHGDVFPSLNNSGKLDTLLSQGKEYVFVANSDNLGAIVDIKILNHLIHNQNEYCMEVTPKTLADVKGGTLISYEGRVQLLEIAQVPDEHVDEFKSIEKFKIFNTNNLWVNLKAIKRLVDAEALKMEIIPNPKEVDGVKVLQLETAAGAAIRFFEKAIGINVPRSRFLPVKATSDLLLVQSDLYTLVDGYVIRNPARVKPSNPSIELGPEFKKVANFLARFKSIPSIVELDSLKVSGDVSFGSGVVLKGNVTIAAKAGVKLEIPDGAVLENKDINGPEDI
  Km: 60 µM
